The target in the data set is His6-GanR (Bacillus subtilis 3610) (UniProt O07008). The data set can be described thus: EMSA. Particulars: 10 mM Tris-HCl (pH not stated), 50 mM NaCl, 1 mM EDTA, 5% glycerol, 1 mM DTT, 10 ug/ml BSA, on ice 20 min; Cy3 probes with poly-dIdC, gel 0.5X TBE at 4 C.
Sequence of His6-GanR (Bacillus subtilis 3610) (O07008 whole entry): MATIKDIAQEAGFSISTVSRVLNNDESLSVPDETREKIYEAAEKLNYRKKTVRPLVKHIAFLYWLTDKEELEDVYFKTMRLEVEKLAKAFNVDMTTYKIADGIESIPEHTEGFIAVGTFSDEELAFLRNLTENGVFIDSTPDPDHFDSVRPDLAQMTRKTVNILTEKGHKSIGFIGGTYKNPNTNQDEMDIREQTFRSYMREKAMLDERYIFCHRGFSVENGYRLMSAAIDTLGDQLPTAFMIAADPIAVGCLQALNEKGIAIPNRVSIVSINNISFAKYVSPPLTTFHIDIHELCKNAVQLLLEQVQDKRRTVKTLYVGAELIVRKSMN

For “GTACGAATTCCCGCGCTGTATTCCGGCTTGAGAACAGCTTTTGAAAAGTAAGCTGTTTGGGAAAGTTAAATAATCTTTAATTCGAGATGTTTTACTTGAAAGTAAATTTCTTTGTCTCTATAATAAAGTCTAAGAGAGACAGAATAATCATTATGCATCTGTATGATAATAATTGATGTGTGATGGATCCGTAC (double strand) [PyvaB (yvaB promoter)]”, the binding entry is “no binding”.

The values above are taken from paper PMC5472308, “Characterization of the regulation of a plant polysaccharide utilization operon and its role in biofilm formation in Bacillus subtilis” (PLoS ONE, 2017).
